Measured values reported in US20240192215A1 (E AND S HEALTHCARE, published 2024).
Each block holds one binder with its values, some of them ahead of it.

Experiments:
Peptide_005 [1] = target: T1, Peptide_005 (human); assay: peptide microarray, 0.2 ug/mL
T1 construct: 15-mer on microarray; not native form, recombinant insert region
T1 peptide: ADVHSQHHHHHHHHV
Experimental: (§1) 5, 1, 0.2, 0.04, 0.008 and 0.0016 μg/mL serial dilutions were incubated on a single multi-well microarray slide at 30° C. for 1 hour. The slide includes 21 individual mini-arrays (one mini-array per sample dilution).
(§2) DyLight 650 was used as a label. False-positive binding to a peptide was evaluated by performing one additional control incubation in which only a secondary antibody was applied on the same microarray slide. Before performing each step, the microarrays were washed with a washing buffer.

Peptide_004 [2] = target: T2, Peptide_004 (human); assay: peptide microarray, 0.2 ug/mL
T2 construct: 15-mer on microarray; not native form, recombinant insert region
T2 peptide: AADVHSQHHHHHHHH
Experimental: as §1, §2

Peptide_005 [3] = target: T1, Peptide_005; assay: peptide microarray, 0.0016 ug/mL
Peptide_004 [4] = target: T2, Peptide_004; assay: peptide microarray, 0.0016 ug/mL
[5] = target: T3, human thioredoxin-1 (Trx1) (human, UniProt P10599 1-105); assay: one site - total fit (Prism) of the ELISA of panel (a); the cell has no unit, the concentrations of panel (a) are in nM; paragraph 183 prints it rounded as 1.1x10^-11 [b]
T3 construct: also called hTrx1; hTRX1
T3 sequence (looked up): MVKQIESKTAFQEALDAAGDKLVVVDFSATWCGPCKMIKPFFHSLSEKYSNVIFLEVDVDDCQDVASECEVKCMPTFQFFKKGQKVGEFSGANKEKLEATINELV
Experimental: (§3) 100 μl of a coating buffer and 100 ng of Trx1 were mixed and dispensed to each well, and then reacted at 4° C. for 16 hours or more. After the reaction solution was removed, 200 μl of PBSA was dispensed to each well and reacted at 37° C. for 120 minutes. […] After the reaction solution was removed, washing was performed by dispensing 200 μl of a washing buffer to each well. The above-described process was performed two times.
(§4) After the reaction solution was removed, washing was performed by dispensing 200 μl of a washing buffer to each well. The above-described process was performed three times.

[6] = target: T3, human thioredoxin-1 (Trx1); assay: one site - total fit (Prism) of the ELISA of panel (a); the cell has no unit, the concentrations of panel (a) are in nM; paragraph 183 prints it rounded as 1.3x10^-10 [b]
Experimental: as §3, §4

Peptide_013 [7] = target: T4, Peptide_013 (human); assay: peptide microarray, 0.2 ug/mL
T4 construct: 15-mer on microarray; not native form, includes recombinant insert region
T4 peptide: HHHHHHVKQIESKTA
Experimental: as §1, §2

Peptide_045 = target: T5, Peptide_045 (human); assay: peptide microarray, 0.2 ug/mL
T5 construct: 15-mer of hTrx1 on microarray
T5 peptide: SATWCGPCKMIKPFF
Experimental: as §1, §2

Peptide_014 [8] = target: T6, Peptide_014 (human); assay: peptide microarray, 0.2 ug/mL
T6 construct: 15-mer on microarray; not native form, includes recombinant insert region
T6 peptide: HHHHHVKQIESKTAF
Experimental: as §1, §2

Peptide_094 = target: T7, Peptide_094 (human); assay: peptide microarray, 0.2 ug/mL
T7 construct: 15-mer of hTrx1 on microarray
T7 peptide: FQFFKKGQKVGEFSG
Experimental: as §1, §2

Peptide_019 = target: T8, Peptide_019 (human); assay: peptide microarray, 0.2 ug/mL
T8 construct: 15-mer of hTrx1 on microarray
T8 peptide: VKQIESKTAFQEALD
Experimental: as §1, §2

Peptide_085 = target: T9, Peptide_085 (human); assay: peptide microarray, 0.2 ug/mL
T9 construct: 15-mer of hTrx1 on microarray
T9 peptide: ECEVKCMPTFQFFKK
Experimental: as §1, §2

Peptide_023 = target: T10, Peptide_023 (human); assay: peptide microarray, 0.2 ug/mL
T10 construct: 15-mer of hTrx1 on microarray
T10 peptide: ESKTAFQEALDAAGD
Experimental: as §1, §2

Peptide_020 [9] = target: T11, Peptide_020 (human); assay: peptide microarray, 0.2 ug/mL
T11 construct: 15-mer of hTrx1 on microarray
T11 peptide: KQIESKTAFQEALDA
Experimental: as §1, §2

Peptide_024 = target: T12, Peptide_024 (human); assay: peptide microarray, 0.2 ug/mL
T12 construct: 15-mer of hTrx1 on microarray
T12 peptide: SKTAFQEALDAAGDK
Experimental: as §1, §2

Peptide_018 = target: T13, Peptide_018 (human); assay: peptide microarray, 0.2 ug/mL
T13 construct: 15-mer on microarray; not native form, includes recombinant insert region; also called HVKQIESKTAFQEAL
T13 peptide: HVKQIESKTAFQEAL
Experimental: as §1, §2

Peptide_021 = target: T14, Peptide_021 (human); assay: peptide microarray, 0.2 ug/mL
T14 construct: 15-mer of hTrx1 on microarray
T14 peptide: QIESKTAFQEALDAA
Experimental: as §1, §2

Peptide_022 = target: T15, Peptide_022 (human); assay: peptide microarray, 0.2 ug/mL
T15 construct: 15-mer of hTrx1 on microarray
T15 peptide: IESKTAFQEALDAAG
Experimental: as §1, §2

Peptide_086 = target: T16, Peptide_086 (human); assay: peptide microarray, 0.2 ug/mL
T16 construct: 15-mer of hTrx1 on microarray
T16 peptide: CEVKCMPTFQFFKKG
Experimental: as §1, §2

Peptide_084 = target: T17, Peptide_084 (human); assay: peptide microarray, 0.2 ug/mL
T17 construct: 15-mer of hTrx1 on microarray
T17 peptide: SECEVKCMPTFQFFK
Experimental: as §1, §2

Peptide_015 = target: T18, Peptide_015 (human); assay: peptide microarray, 0.2 ug/mL
T18 construct: 15-mer on microarray; not native form, includes recombinant insert region
T18 peptide: HHHHVKQIESKTAFQ
Experimental: as §1, §2

Peptide_092 = target: T19, Peptide_092 (human); assay: peptide microarray, 0.2 ug/mL
T19 construct: 15-mer of hTrx1 on microarray
T19 peptide: PTFQFFKKGQKVGEF
Experimental: as §1, §2

Peptide_051 = target: T20, Peptide_051 (human); assay: peptide microarray, 0.2 ug/mL
T20 construct: 15-mer of hTrx1 on microarray
T20 peptide: PCKMIKPFFHSLSEK
Experimental: as §1, §2

Peptide_093 = target: T21, Peptide_093 (human); assay: peptide microarray, 0.2 ug/mL
T21 construct: 15-mer of hTrx1 on microarray
T21 peptide: TFQFFKKGQKVGEFS
Experimental: as §1, §2

Peptide_025 = target: T22, Peptide_025 (human); assay: peptide microarray, 0.2 ug/mL
T22 construct: 15-mer of hTrx1 on microarray
T22 peptide: KTAFQEALDAAGDKL
Experimental: as §1, §2

Peptide_095 = target: T23, Peptide_095 (human); assay: peptide microarray, 0.2 ug/mL
T23 construct: 15-mer of hTrx1 on microarray
T23 peptide: QFFKKGQKVGEFSGA
Experimental: as §1, §2

Peptide_012 = target: T24, Peptide_012 (human); assay: peptide microarray, 0.2 ug/mL
T24 construct: 15-mer on microarray; not native form, includes recombinant insert region
T24 peptide: HHHHHHHVKQIESKT
Experimental: as §1, §2

Peptide_013 [10] = target: T4, Peptide_013; assay: peptide microarray, 0.0016 ug/mL
Peptide_014 [11] = target: T6, Peptide_014; assay: peptide microarray, 0.0016 ug/mL
Peptide_020 [12] = target: T11, Peptide_020; assay: peptide microarray, 0.0016 ug/mL

signal (blank-control = 1) (Peptide_005 [1]): 1.78
signal (blank-control = 1) (Peptide_004 [2]): 1.41
signal (blank-control = 1) (Peptide_005 [3]): 1.6
signal (blank-control = 1) (Peptide_004 [4]): 0.99
Kd [5]: 0.0112 nM
B1: monoclonal antibody B266-1 (antibody, human IgG1)
light: QIVLTQSPAIMSASPGEKVTMTCSASSRISYMYWYQQKPGTSPKRWIYDTSKLASGVPARFSGSGSGTSYSLTISTMEAEDAATYYCHQRSSYPTFGAGTKLELKSVAAPSVFIFPPSDEQLKSGTASVVCLLNNFYPREAKVQWKVDNALQSGNSQESVTEQDSKDSTYSLSSTLTLSKADYEKHKVYACEVTHQGLSSPVTKSFNRGEC
heavy: not shown
notes: B266 with the Fc part changed to human IgG1; also called B266-1 (Trx1-hIgG1); B266-1 (hTrx1-hIgG1)

Kd [6]: 0.133 nM
signal (blank-control = 1) (Peptide_013 [7]): 1.85
signal (blank-control = 1) (Peptide_045): 4.58
signal (blank-control = 1) (Peptide_014 [8]): 3.16
signal (blank-control = 1) (Peptide_094): 2.11
signal (blank-control = 1) (Peptide_019): 1.48
signal (blank-control = 1) (Peptide_085): 2.23
signal (blank-control = 1) (Peptide_023): 1.12
signal (blank-control = 1) (Peptide_020 [9]): 1.84
signal (blank-control = 1) (Peptide_024): 4
signal (blank-control = 1) (Peptide_018): 3.49
signal (blank-control = 1) (Peptide_021): 2.08
signal (blank-control = 1) (Peptide_022): 4.2
signal (blank-control = 1) (Peptide_086): 1.16
signal (blank-control = 1) (Peptide_084): 2.36
signal (blank-control = 1) (Peptide_015): 2.5
signal (blank-control = 1) (Peptide_092): 6.81
signal (blank-control = 1) (Peptide_051): 2.32
signal (blank-control = 1) (Peptide_093): 3.72
signal (blank-control = 1) (Peptide_025): 4.9
signal (blank-control = 1) (Peptide_095): 2.13
signal (blank-control = 1) (Peptide_012): 1.72
signal (blank-control = 1) (Peptide_013 [10]): 0.75
signal (blank-control = 1) (Peptide_014 [11]): 0.69
signal (blank-control = 1) (Peptide_020 [12]): 0.71
B2: monoclonal antibody B264 (antibody, mouse IgG1, kappa, V domains shown)
VH: QVQLQQSGAELARPGASVKMSCKASGYTFTSYTMHWVKQRPGQGLEWIGYINPTSDYTNYNQKFKDKATLTADKSSSTAYMQLSSLTSEDSAVYFCASEGGFLYYFDYWGQGTTLTVSS
VL: DVLMTQTPLSLPVSLGDQASISCRSSQSIVHSNGNTYLEWYLQKPGQSPKLLIYKVSNRFSGVPDRFSGSGSGTDFTLKISRVEAEDLGVYYCFQGSHVPYTFGGGTKLEIKR
notes: also called AB264; B264 (Trx1-mIgG1)
